Measurements: patent publication US20190300590A1 (PROTAGONIST THERAPEUTICS, published 2019)
*1 amine or outer side, *2 acyl side, *3 side chain or, on linkers, in order; H or OH if unused. Bridges are numbered along the chain shown (N, C = ends). Primed or numbered codes have the meaning given here. [ ]: non-standard residue; d: D form. Phe(4-(2-acetylaminoethoxy)) = 4-(2-acetamidoethoxy)-phenylalanine, CC(=O)NCCOc1ccc(C[C@H](N[*:1])C(=O)[*:2])cc1; Phe(4-OMe)(3) = O-methyl-L-tyrosine (4-methoxy-L-phenylalanine), COc1ccc(C[C@H](N[*:1])C(=O)[*:2])cc1; 2Nal = N[C@@H](Cc1ccc2ccccc2c1)C(=O)O; AEF = NCCOc1ccc(C[C@H](N)C(=O)O)cc1; αMeL = CC(C)C[C@](C)(N)C(=O)O; Suc = O=C(CCC(=O)[*:2])[*:1]; hLeu = CC(C)CC[C@H](N)C(=O)O; αMeK = C[C@](N)(CCCCN)C(=O)O; Abu = CC[C@H](N)C(=O)O; βAla = NCCC(=O)O

T1: IL-23R on human cells (IL-23R-expressing DB cells; human NK cells) (human, UniProt Q5VWK5 24-629)
T1 sequence (looked up): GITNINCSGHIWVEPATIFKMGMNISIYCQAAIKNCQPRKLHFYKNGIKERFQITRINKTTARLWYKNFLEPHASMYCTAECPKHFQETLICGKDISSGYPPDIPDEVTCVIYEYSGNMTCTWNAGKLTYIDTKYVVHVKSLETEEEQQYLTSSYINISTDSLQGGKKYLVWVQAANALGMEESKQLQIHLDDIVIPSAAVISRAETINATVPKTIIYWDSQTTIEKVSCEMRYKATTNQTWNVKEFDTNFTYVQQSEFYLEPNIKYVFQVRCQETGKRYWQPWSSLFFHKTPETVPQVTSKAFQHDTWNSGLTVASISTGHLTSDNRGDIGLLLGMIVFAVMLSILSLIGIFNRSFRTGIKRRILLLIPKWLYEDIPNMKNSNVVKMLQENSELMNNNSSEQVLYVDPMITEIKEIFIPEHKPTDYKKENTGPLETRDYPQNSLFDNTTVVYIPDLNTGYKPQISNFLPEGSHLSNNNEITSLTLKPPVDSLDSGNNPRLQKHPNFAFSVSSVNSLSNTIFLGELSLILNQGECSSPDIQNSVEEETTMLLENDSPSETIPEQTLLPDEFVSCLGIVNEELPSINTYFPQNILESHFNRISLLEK

T2: IL23R_huFC (human, UniProt Q5VWK5 24-353)
T2 sequence (looked up): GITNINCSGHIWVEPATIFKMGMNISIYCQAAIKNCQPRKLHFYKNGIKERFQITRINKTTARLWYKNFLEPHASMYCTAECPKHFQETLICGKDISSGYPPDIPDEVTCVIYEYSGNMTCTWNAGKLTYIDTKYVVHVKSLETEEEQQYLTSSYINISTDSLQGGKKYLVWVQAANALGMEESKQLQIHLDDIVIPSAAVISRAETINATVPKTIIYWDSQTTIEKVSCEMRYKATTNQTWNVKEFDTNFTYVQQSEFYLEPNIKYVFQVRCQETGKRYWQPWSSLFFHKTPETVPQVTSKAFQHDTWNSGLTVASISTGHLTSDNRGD

T3: IL23R_huFC (human, UniProt Q5VWK5 24-353)
T3 sequence (looked up): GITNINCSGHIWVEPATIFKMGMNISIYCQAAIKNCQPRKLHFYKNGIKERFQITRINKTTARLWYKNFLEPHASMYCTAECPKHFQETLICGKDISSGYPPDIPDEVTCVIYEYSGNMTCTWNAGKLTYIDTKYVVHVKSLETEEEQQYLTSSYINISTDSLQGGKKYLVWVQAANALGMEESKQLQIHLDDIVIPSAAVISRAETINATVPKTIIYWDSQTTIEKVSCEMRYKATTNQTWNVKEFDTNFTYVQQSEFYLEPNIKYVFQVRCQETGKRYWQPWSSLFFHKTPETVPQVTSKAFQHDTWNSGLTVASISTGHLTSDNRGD


How the values were obtained:
[1] = target: Rat IL-23R_huFC (rat); test: rat ELISA vs IL-23
[2] = target: T1, IL-23R on human cells …; test: cell-based or functional assay
[3] = target: T2, IL23R_huFC; test: human ELISA vs IL-23
[4] = target: T3, IL23R_huFC; test: IL23-IL23R competitive ELISA
[5] = target: T2, IL23R_huFC; test: human ELISA vs IL-23; remark: listed apart in the source

Binder	IC50 [1] [nM]	pStat3 HTRF IC50 [2] [nM]	other results
Ac-[Abu]QTWQC[Phe(4-(2-acetylaminoethoxy))][2Nal][αMeK](Ac)ENG-NH2 (thioether 1-6) [Ac-Cyclo-[[Abu]-QTWQC]-[Phe[4-(2-(acetyl-aminoethoxy)]]-[2-Nal]-[α-MeLys(Ac)]-ENG-NH2]	< 10	< 10	–
Ac-[Abu]QTWQC[Phe(4-(2-acetylaminoethoxy))][2Nal][αMeK](Ac)ENQ-NH2 (thioether 1-6) [Ac-Cyclo-[[Abu]-QTWQC]-[Phe[4-(2-(acetyl-aminoethoxy)]]-[2-Nal]-[α-MeLys(Ac)]-ENQ-NH2]	< 10	< 10	IC50 [3]: < 10 nM
Ac-[Abu]QTWQC[AEF][2Nal][αMeK]ENG-NH2 (thioether 1-6) [Ac-Cyclo-[[Abu]-QTWQC]-[Phe[4-(2-aminoethoxy)]]-[2-Nal]-[α-MeLys]-ENG-NH2]	< 10	< 10	–
Ac-[Abu]QTWQC[Phe(4-(2-acetylaminoethoxy))][2Nal][αMeK](Ac)ENN-NH2 (thioether 1-6) [Ac-Cyclo-[[Abu]-QTWQC]-[Phe[4-(2-(acetyl-aminoethoxy)]]-[2-Nal]-[α-MeLys(Ac)]]-ENN-NH2]	< 10	< 10	IC50 [3]: < 10 nM
Ac-[Abu]QTWQC[AEF][2Nal][αMeL]K(Ac)NN-NH2 (thioether 1-6) [Ac-Cyclo-[[Abu]-QTWQC]-[Phe[4-(2-aminoethoxy)]]-[2-Nal]-[α-MeLeu]-[Lys(Ac)]-NN-NH2]	< 10	< 10	IC50 [3]: < 10 nM
Ac-[Abu]QTWQC[AEF][2Nal][hLeu]K(Ac)N[βAla]-NH2 (thioether 1-6) [Ac-Cyclo-[[Abu]-QTWQC]-[Phe[4-(2-aminoethoxy)]]-[2-Nal]-[hLeu]-[Lys(Ac)]-N-[βAla]-NH2]	< 10	< 10	IC50 [3]: < 10 nM
Ac-[Abu]QTWQC[AEF][2Nal][αMeL]ENN-NH2 (thioether 1-6) [Ac-Cyclo-[[Abu]-QTWQC]-[Phe[4-(2-aminoethoxy)]]-[2-Nal]-[α-MeLeu]-ENN-NH2]	< 10	< 10	IC50 [3]: < 10 nM
Ac-GSVHCMTWECYWHTFG-NH2 (disulfide 5-10 (inferred)) [Ac-GSVHCMTWECYWHTFG-NH2]	–	–	IC50 [4]: 500 to 1000 nM
Ac-GDHKCSSWECYWHTFG-NH2 (disulfide 5-10 (inferred)) [Ac-GDHKCSSWECYWHTFG-NH2]	–	–	IC50 [4]: 500 to 1000 nM
Ac-[Abu]QTWQCYW[hLeu]ENG-NH2 (thioether 1-6) [Ac-Cyclo-[[Abu]-QTWQC]-YW-[hLeu]-ENG-NH2]	–	–	IC50 [5]: 25 to 100 nM
XQTWQCFWXENG (as bracketed in name; thioether cyclo) [Ac-Cyclo-[[Abu]-QTWQC]-[Phe[4-(2-aminoethoxy)]]-W-[Orn]-ENG-NH2]	–	–	IC50 [5]: 25 to 100 nM
Ac-GGVECNDWQCYWHTFG-NH2 (disulfide 5-10 (inferred)) [Ac-GGVECNDWQCYWHTFG-NH2]	–	–	IC50 [4]: 500 to 1000 nM
Suc-[Abu]QTWQC[AEF][2Nal][αMeK]K(Ac)NG-NH2 (thioether 1-6) [Succicinyl-Cyclo-[[Abu]-QTWQC]-[Phe[4-(2-aminoethoxy)]]-[2-Nal]-[α-MeLys]-[Lys(Ac)]-NG-NH2]	< 10	–	–
Ac-DTPRCRTWECYWHTFG-NH2 (disulfide 5-10 (inferred)) [Ac-DTPRCRTWECYWHTFG-NH2]	–	–	IC50 [4]: 500 to 1000 nM
Ac-[Abu]QTWQC[Phe(4-OMe)(3)][2Nal][αMeK]K(Ac)NGGE-NH2 (thioether 1-6) [Ac-Cyclo-[[Abu]-QTWQC]-[Phe(4-OMe)]-[2-Nal][α-MeLys]-[Lys(Ac)]-NGGE-NH2]	–	–	IC50 [5]: 25 to 100 nM
Ac-[Abu]QTWQC[Phe(4-(2-acetylaminoethoxy))][2Nal][αMeK](Ac)K(Ac)NG-NH2 (thioether 1-6) [Ac-Cyclo-[[Abu]-QTWQC]-[Phe[4-(2-(acetyl-aminoethoxy)]]-[2-Nal]-[α-MeLys(Ac)]-[Lys(Ac)]-NG-NH2]	< 10	–	–
Ac-CADWVCYWHRSTGGQH-NH2 (disulfide 1-6 (inferred)) [Ac-CADWVCYWHRSTGGQH-NH2]	–	–	IC50 [4]: 500 to 1000 nM
